# Laboratory results as given in the supplement of paper PMC10567573.
# B1: DVL3 (parent)
# chain: FCADNPSELPPPMERTGGIGDSRP
# B2: PDZK1 (parent)
# chain: RETASLKLLPHQPRIVEMKKGSNG
# Variants of: B1
# Assay: protein stability index of a GFP-peptide fusion (GPS, HEK-293T) (PSI 1-6); higher = more stable
# Details: c terminus: a fixed tail appended
# 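Also: lentivirally expressed fusions sorted by FACS into six bins by GFP to DsRed ratio, PSI derived from sequencing read proportions per bin multiplied by bin number.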
row,Variant,protein stability index
1,S22L,4.4
2,S22M,4.09
3,S22N,5.01
4,S22P,4.63
5,S22Q,5.11
6,S22R,4.29
7,S22T,4.7
8,S22V,4.15
9,S22W,3.97
10,S22Y,4.23
11,R23A,4.89
12,R23C,4.59
13,R23D,5.18
14,R23E,4.95
15,R23F,3.55
16,R23G,4.72
17,R23H,5.02
18,R23I,4.18
19,R23K,4.94
20,R23L,3.74
21,R23M,4.12
22,R23N,5.22
23,R23Q,4.56
24,R23S,4.75

row,Variant,protein stability index
1,R23T,5.04
2,R23V,4.46
3,R23W,2.21
4,R23Y,4.15
5,P24A,3.79
6,P24C,4.39
7,P24D,4.86
8,P24E,5.45
9,P24F,3.82
10,P24G,4.71
11,P24H,4.66
12,P24I,4.32
13,P24K,4.92
14,P24L,3.96
15,P24M,3.65
16,P24N,4.6
17,P24Q,4.58
18,P24R,5.16
19,P24S,4.73
20,P24T,4.12
21,P24V,4.55
22,P24W,3.23
23,P24Y,3.6

# Variants of: B2
# Assay: as above
# Details: c terminus: a fixed tail appended
row,Variant,protein stability index
1,R1A,3.58
2,R1C,3.34
3,R1D,3.19
4,R1E,3.36
5,R1F,2.99
6,R1G,2.8
7,R1H,3.14
8,R1K,3.67
9,R1L,3.65
10,R1M,2.38
11,R1N,3.8
12,R1P,3.24
13,R1Q,3.4
14,R1S,3.41
15,R1T,2.98
16,R1V,3.14
17,R1W,2.09
18,R1Y,3.14
19,E2A,2.73
20,E2C,2.1
21,E2D,3.4
22,E2F,3.45
23,E2I,2.23
24,E2K,3.58

row,Variant,protein stability index
1,E2M,3.08
2,E2N,3.57
3,E2P,3.65
4,E2Q,3.73
5,E2R,3.63
6,E2S,3.62
7,E2T,3.39
8,E2V,2.62
9,E2W,2.36
10,E2Y,2.64
11,T3A,3.26
12,T3C,2.35
13,T3D,3.39
14,T3E,3.65
15,T3F,3.08
16,T3G,3.27
17,T3H,3.31
18,T3I,3.6
19,T3K,3.53
20,T3M,3.14
21,T3P,3.75
22,T3Q,3.41
23,T3R,3.28
24,T3S,3.62

row,Variant,protein stability index
1,T3V,3.25
2,T3W,2.58
3,T3Y,3.02
4,A4C,3.12
5,A4D,3.15
6,A4E,3.43
7,A4F,2.66
8,A4G,3.17
9,A4I,2.47
10,A4K,3.79
11,A4L,3.05
12,A4M,3.27
13,A4N,3.81
14,A4P,3.8
15,A4Q,3.29
16,A4R,3.88
17,A4S,3.17
18,A4T,3.32
19,A4V,3.21
20,A4W,2.37
21,A4Y,3.19
22,S5C,3.2
23,S5D,3.77
24,S5E,3.61

row,Variant,protein stability index
1,S5F,1.88
2,S5G,3.26
3,S5H,2.98
4,S5I,2.82
5,S5K,2.67
6,S5L,3.73
7,S5N,2.93
8,S5P,3
9,S5Q,3.44
10,S5R,3.38
11,S5T,3.39
12,S5V,3.32
13,S5W,2.36
14,S5Y,2.47
15,L6A,3.66
16,L6D,3.53
17,L6E,3.95
18,L6F,3.15
19,L6G,3.69
20,L6H,3.56
21,L6I,3.48
22,L6K,3.64
23,L6M,3.55
24,L6N,4

row,Variant,protein stability index
1,L6P,4.18
2,L6Q,3.9
3,L6R,3.37
4,L6S,4.01
5,L6T,3.63
6,L6V,3.54
7,L6W,2.98
8,L6Y,3.56
9,K7A,4.19
10,K7C,3.89
11,K7D,4.97
12,K7F,3.07
13,K7G,4.32
14,K7I,3.68
15,K7L,3.98
16,K7M,3.9
17,K7N,4.86
18,K7P,4.67
19,K7Q,4.74
20,K7R,4.05
21,K7S,4.29
22,K7T,4.66
23,K7V,3.95
24,K7W,2.72

row,Variant,protein stability index
1,K7Y,3.4
2,L8A,3.56
3,L8C,3.38
4,L8D,3.4
5,L8E,3.77
6,L8F,3.65
7,L8G,3.42
8,L8H,2.81
9,L8I,3.34
10,L8K,3.63
11,L8M,2.75
12,L8N,2.96
13,L8P,4.25
14,L8Q,4.16
15,L8R,3.89
16,L8S,3.7
17,L8V,3.92
18,L8W,3.21
19,L8Y,3.17
20,L9A,3.39
21,L9C,3.75
22,L9D,3.33
23,L9E,3.11
24,L9F,3.26

row,Variant,protein stability index
1,L9G,4.12
2,L9H,3.42
3,L9K,3.99
4,L9M,3.02
5,L9N,3.79
6,L9P,3
7,L9Q,3.5
8,L9R,3.63
9,L9S,3.26
10,L9T,3.61
11,L9V,3.36
12,L9W,2.76
13,L9Y,3
14,P10A,3.5
15,P10D,3.21
16,P10E,3.14
17,P10F,2.08
18,P10G,3.38
19,P10H,2.54
20,P10I,2.43
21,P10K,3.62
22,P10L,2.88
23,P10M,2.89
24,P10Q,3.02

row,Variant,protein stability index
1,P10R,3.56
2,P10S,3.48
3,P10T,2.98
4,P10V,2.76
5,P10W,2.82
6,P10Y,2.99
7,H11A,2.57
8,H11C,3.47
9,H11D,2.35
10,H11E,3.08
11,H11F,3.27
12,H11G,3.38
13,H11I,3.59
14,H11K,3.53
15,H11L,3.14
16,H11M,2.75
17,H11N,3.38
18,H11P,3.25
19,H11Q,3.23
20,H11R,3.35
21,H11S,3.52
22,H11T,3.73
23,H11V,2.59
24,H11W,3.29

row,Variant,protein stability index
1,H11Y,3.5
2,Q12A,3.54
3,Q12C,3.27
4,Q12D,3.3
5,Q12E,2.88
6,Q12F,2.97
7,Q12G,3.62
8,Q12H,3.97
9,Q12I,2.85
10,Q12K,3.66
11,Q12L,3.27
12,Q12M,3.38
13,Q12N,3.84
14,Q12P,4.03
15,Q12R,3.65
16,Q12S,4.05
17,Q12T,3.26
18,Q12V,3.09
19,Q12W,3.2
20,P13A,4.09
21,P13C,2.35
22,P13D,4.22
23,P13E,4.4
24,P13F,3.63

row,Variant,protein stability index
1,P13G,4.14
2,P13H,3.73
3,P13I,3.29
4,P13K,4.07
5,P13L,4.35
6,P13M,3.88
7,P13N,3.67
8,P13Q,4.81
9,P13R,3.77
10,P13S,3.92
11,P13T,3.99
12,P13V,4.14
13,P13W,3.25
14,P13Y,3.4
15,R14A,4.25
16,R14C,3.63
17,R14D,4.61
18,R14E,4.07
19,R14G,4.05
20,R14H,3.7
21,R14I,3.86
22,R14K,3.38
23,R14M,2.93
24,R14N,4.13

row,Variant,protein stability index
1,R14S,3.87
2,R14T,4.22
3,R14W,3.3
4,R14Y,3.34
5,I15A,4.78
6,I15C,4.3
7,I15D,4.66
8,I15E,5.02
9,I15F,3.44
10,I15G,5.16
11,I15K,4.75
12,I15L,4.16
13,I15M,3.89
14,I15N,4.99
15,I15P,4.39
16,I15Q,4.72
17,I15R,4.51
18,I15S,4.69
19,I15T,4.49
20,I15V,3.51
21,I15W,2.79
22,I15Y,4.01
23,V16A,4.42
24,V16D,4.18

row,Variant,protein stability index
1,V16E,4.53
2,V16F,4.05
3,V16G,4.85
4,V16H,4.35
5,V16I,3.9
6,V16L,3.87
7,V16M,4.17
8,V16N,4.88
9,V16P,4.63
10,V16Q,4.51
11,V16S,3.92
12,V16T,4.67
13,V16W,3.57
14,V16Y,3.68
15,E17C,3.17
16,E17D,4.08
17,E17F,2.81
18,E17G,3.48
19,E17H,3.67
20,E17I,2.42
21,E17K,3.82
22,E17L,2.66
23,E17N,4.28
